# Experimental data taken from the supplement of paper PMC9112550, “Optimization of the antimicrobial peptide Bac7 by deep mutational scanning” (BMC Biology, 2022).
# Test system: Escherichia coli TOP10
# Assay: shrunken log2 fold change of peptide-encoding DNA abundance (4.5 h post-induction vs induction); higher = less antimicrobial activity (less host growth inhibition)
# Details: time post-induction: 4.5 h; library: site-saturation at positions 5, 18, 19, 20
# 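Note: peptides expressed intracellularly from a pBAD plasmid library in pooled LB shake-flask culture, induced with 0.3% L-arabinose, DNA abundance read by NGS, three biological replicates, DESeq2 with apeglm shrinkage.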
row,Sequence,shrunken log2 fold change
1,RRIRNRPPRLPRPRPRPANMPRP,-0.205
2,RRIRERPPRLPRPRPRPMRYPRP,0.000213
3,RRIRPRPPRLPRPRPRPVAAPRP,0.406
4,RRIRNRPPRLPRPRPRPWGYPRP,-0.123
5,RRIRQRPPRLPRPRPRPYCMPRP,-0.302
6,RRIRFRPPRLPRPRPRPEWPPRP,0.459
7,RRIRMRPPRLPRPRPRPAQCPRP,0.0203
8,RRIRERPPRLPRPRPRPPMGPRP,-0.107
9,RRIRDRPPRLPRPRPRPVWTPRP,0.0494
10,RRIRKRPPRLPRPRPRPGEYPRP,0.156
11,RRIRRRPPRLPRPRPRPLDSPRP,-0.106
12,RRIRPRPPRLPRPRPRPHHGPRP,0.0245
13,RRIRNRPPRLPRPRPRPGFFPRP,0.263
14,RRIRKRPPRLPRPRPRPTEHPRP,0.279
15,RRIRIRPPRLPRPRPRPKWNPRP,-0.454
16,RRIRPRPPRLPRPRPRPVNYPRP,-0.335
17,RRIRARPPRLPRPRPRPRIVPRP,0.547
18,RRIRQRPPRLPRPRPRPNSLPRP,-0.489
19,RRIRMRPPRLPRPRPRPNYRPRP,-0.133
20,RRIRLRPPRLPRPRPRPMHGPRP,0.0554
21,RRIRIRPPRLPRPRPRPSLWPRP,0.211
22,RRIRTRPPRLPRPRPRPRSFPRP,-0.0927
23,RRIRWRPPRLPRPRPRPPILPRP,0.27
24,RRIRCRPPRLPRPRPRPEYRPRP,-0.00301
25,RRIRSRPPRLPRPRPRPYDDPRP,0.0208

row,Sequence,shrunken log2 fold change
1,RRIRVRPPRLPRPRPRPKYLPRP,-0.308
2,RRIRWRPPRLPRPRPRPPPQPRP,0.905
3,RRIRHRPPRLPRPRPRPHLMPRP,-0.177
4,RRIRARPPRLPRPRPRPTWCPRP,0.325
5,RRIRRRPPRLPRPRPRPSTRPRP,0.194
6,RRIRMRPPRLPRPRPRPNEFPRP,0.0287
7,RRIRGRPPRLPRPRPRPAHHPRP,0.452
8,RRIRFRPPRLPRPRPRPFNEPRP,-0.322
9,RRIRKRPPRLPRPRPRPSTLPRP,0.252
10,RRIRERPPRLPRPRPRPSPKPRP,0.0298
11,RRIRHRPPRLPRPRPRPDEMPRP,0.0307
12,RRIRNRPPRLPRPRPRPLQYPRP,-0.0315
13,RRIRIRPPRLPRPRPRPYHSPRP,-0.00112
14,RRIRIRPPRLPRPRPRPAASPRP,0.241
15,RRIRQRPPRLPRPRPRPEFRPRP,0.0728
16,RRIRERPPRLPRPRPRPPKLPRP,-0.0377
17,RRIRLRPPRLPRPRPRPVEKPRP,0.0244
18,RRIRDRPPRLPRPRPRPTLRPRP,0.129
19,RRIRKRPPRLPRPRPRPRLVPRP,0.338
20,RRIRMRPPRLPRPRPRPDTNPRP,1.3
21,RRIRFRPPRLPRPRPRPDASPRP,0.146
22,RRIRCRPPRLPRPRPRPPCQPRP,0.0248
23,RRIRWRPPRLPRPRPRPPHQPRP,0.235
24,RRIRERPPRLPRPRPRPEQYPRP,-0.14
25,RRIRVRPPRLPRPRPRPLFKPRP,-0.262

row,Sequence,shrunken log2 fold change
1,RRIRTRPPRLPRPRPRPDQEPRP,0.105
2,RRIRERPPRLPRPRPRPIYMPRP,-0.372
3,RRIRARPPRLPRPRPRPQNDPRP,5.63e-05
4,RRIRWRPPRLPRPRPRPNVNPRP,-0.171
5,RRIRDRPPRLPRPRPRPDGFPRP,0.0291
6,RRIRNRPPRLPRPRPRPHAIPRP,-0.673
7,RRIRTRPPRLPRPRPRPHHVPRP,0.0387
8,RRIRFRPPRLPRPRPRPKYIPRP,-0.678
9,RRIRARPPRLPRPRPRPKCLPRP,0.613
10,RRIRVRPPRLPRPRPRPCCEPRP,-0.0815
11,RRIRWRPPRLPRPRPRPNDSPRP,-0.134
12,RRIRFRPPRLPRPRPRPGGSPRP,-0.0392
13,RRIRWRPPRLPRPRPRPWLWPRP,0.242
14,RRIRRRPPRLPRPRPRPNKIPRP,0.755
15,RRIRERPPRLPRPRPRPNFMPRP,-0.178
16,RRIRNRPPRLPRPRPRPKNNPRP,-0.407
17,RRIRRRPPRLPRPRPRPVEQPRP,0.0679
18,RRIRRRPPRLPRPRPRPVGQPRP,0.0153
19,RRIRSRPPRLPRPRPRPWVCPRP,0.101
20,RRIRMRPPRLPRPRPRPACWPRP,1.06
21,RRIRFRPPRLPRPRPRPKQNPRP,0.249
22,RRIRGRPPRLPRPRPRPYYCPRP,-0.172
23,RRIRCRPPRLPRPRPRPFQFPRP,0.133
24,RRIRARPPRLPRPRPRPEYPPRP,0.0126
25,RRIRCRPPRLPRPRPRPGIWPRP,0.485

row,Sequence,shrunken log2 fold change
1,RRIRKRPPRLPRPRPRPFGIPRP,-0.00674
2,RRIRFRPPRLPRPRPRPKSRPRP,-0.0938
3,RRIRWRPPRLPRPRPRPDHVPRP,-0.13
4,RRIRERPPRLPRPRPRPYLTPRP,-0.424
5,RRIRCRPPRLPRPRPRPRFSPRP,-0.289
6,RRIRFRPPRLPRPRPRPENNPRP,-0.285
7,RRIRDRPPRLPRPRPRPYIYPRP,-0.184
8,RRIRSRPPRLPRPRPRPVENPRP,0.0506
9,RRIRLRPPRLPRPRPRPIPWPRP,0.0447
10,RRIRQRPPRLPRPRPRPTEWPRP,0.446
11,RRIRSRPPRLPRPRPRPDDDPRP,-0.0062
12,RRIRERPPRLPRPRPRPWEDPRP,-0.0727
13,RRIRSRPPRLPRPRPRPQWFPRP,-0.241
14,RRIRGRPPRLPRPRPRPSCPPRP,-0.12
15,RRIRIRPPRLPRPRPRPNVEPRP,-0.325
16,RRIRLRPPRLPRPRPRPMGPPRP,0.015
17,RRIRDRPPRLPRPRPRPWHFPRP,-0.01
18,RRIRTRPPRLPRPRPRPGTSPRP,-0.043
19,RRIRGRPPRLPRPRPRPGGLPRP,0.842
20,RRIRRRPPRLPRPRPRPEHQPRP,0.25
21,RRIRSRPPRLPRPRPRPVYWPRP,-0.175
22,RRIRPRPPRLPRPRPRPLYQPRP,-0.0164
23,RRIRDRPPRLPRPRPRPNGEPRP,0.0768
24,RRIRPRPPRLPRPRPRPLPYPRP,-0.31
25,RRIRPRPPRLPRPRPRPPHNPRP,0.242

row,Sequence,shrunken log2 fold change
1,RRIRMRPPRLPRPRPRPFMSPRP,0.0642
2,RRIRARPPRLPRPRPRPQYCPRP,-0.0903
3,RRIRRRPPRLPRPRPRPGCAPRP,0.73
4,RRIRMRPPRLPRPRPRPAIKPRP,-0.183
5,RRIRCRPPRLPRPRPRPSKAPRP,0.0693
6,RRIRYRPPRLPRPRPRPAKYPRP,-0.142
7,RRIRQRPPRLPRPRPRPTDSPRP,-0.0401
8,RRIRTRPPRLPRPRPRPEWIPRP,0.0842
9,RRIRFRPPRLPRPRPRPQKNPRP,0.16
10,RRIRKRPPRLPRPRPRPQGEPRP,-0.000844
11,RRIRFRPPRLPRPRPRPLDPPRP,0.0688
12,RRIRFRPPRLPRPRPRPHDAPRP,0.293
13,RRIRDRPPRLPRPRPRPIQCPRP,0.0299
14,RRIRTRPPRLPRPRPRPYSHPRP,-0.04
15,RRIRARPPRLPRPRPRPHDKPRP,-0.0542
16,RRIRWRPPRLPRPRPRPHIHPRP,-0.359
17,RRIRYRPPRLPRPRPRPHNCPRP,-0.381
18,RRIRQRPPRLPRPRPRPENCPRP,-0.219
19,RRIRPRPPRLPRPRPRPWVHPRP,-0.0708
20,RRIRERPPRLPRPRPRPSEMPRP,-0.16
21,RRIRDRPPRLPRPRPRPSNWPRP,-0.136
22,RRIRVRPPRLPRPRPRPDSMPRP,-0.103
23,RRIRCRPPRLPRPRPRPPKIPRP,0.277
24,RRIRIRPPRLPRPRPRPRNSPRP,0.0503
25,RRIRWRPPRLPRPRPRPIQWPRP,0.25
